Test results reported in patent US20200024322A1 (Eli Lilly, published 2020).
Numbered stars: 1 amine (or outer) side, 2 acyl side, 3 side chain; on linkers, the order of the positions; unused ones are H or OH. Square brackets hold non-standard residues; d marks the D form. Side chains are listed from the residue outwards. Ends that are not written are not given here. * marks the point of attachment. C20 diacid = O=C(O)CCCCCCCCCCCCCCCCCCC(=O)*; γGlu = O=C(O)[C@H](CCC(=O)[*:2])N[*:1]; αMeL = CC(C)C[C@](C)(N)C(=O)O; αMeK = C[C@](N)(CCCCN)C(=O)O; Dab = NCC[C@H](N)C(=O)O; AEEA = NCCOCCOCC(=O)O; Aib = CC(C)(N)C(=O)O

T1: human GIP receptor (human, UniProt P48546 22-466)
T1 construct: whole, on cells; Used as crude membranes of stably transfected CHO cells; also called hGIPR
T1 sequence (looked up): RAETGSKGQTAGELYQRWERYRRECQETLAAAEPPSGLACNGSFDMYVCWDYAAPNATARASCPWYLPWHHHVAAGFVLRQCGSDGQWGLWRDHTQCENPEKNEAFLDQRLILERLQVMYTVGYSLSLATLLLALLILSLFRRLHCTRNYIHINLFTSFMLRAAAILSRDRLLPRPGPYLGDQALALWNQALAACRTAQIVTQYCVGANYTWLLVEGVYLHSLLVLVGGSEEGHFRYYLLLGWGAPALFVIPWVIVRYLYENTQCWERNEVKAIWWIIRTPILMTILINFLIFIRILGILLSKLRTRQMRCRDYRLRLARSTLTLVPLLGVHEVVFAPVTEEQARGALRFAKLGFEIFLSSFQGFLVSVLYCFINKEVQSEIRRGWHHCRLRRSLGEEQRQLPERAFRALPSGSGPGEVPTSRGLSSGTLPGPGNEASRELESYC

B1: Example 22 (peptide)
peptide: Y[Aib]EGTFTSDYSI[αMeL]LDEK([AEEA-AEEA-γGlu-C20 diacid])AQ[αMeK]AFIEYLLE[Aib]GPSSGAPPPS-NH2
modifications: N-terminus assumed
SMILES: CC[C@H](C)[C@H](NC(=O)[C@H](Cc1ccccc1)NC(=O)[C@H](C)NC(=O)[C@](C)(CCCCN)NC(=O)[C@H](CCC(N)=O)NC(=O)[C@H](C)NC(=O)[C@H](CCCCNC(=O)COCCOCCNC(=O)COCCOCCNC(=O)CC[C@H](NC(=O)CCCCCCCCCCCCCCCCCCC(=O)O)C(=O)O)NC(=O)[C@H](CCC(=O)O)NC(=O)[C@H](CC(=O)O)NC(=O)[C@H](CC(C)C)NC(=O)[C@](C)(CC(C)C)NC(=O)[C@@H](NC(=O)[C@H](CO)NC(=O)[C@H](Cc1ccc(O)cc1)NC(=O)[C@H](CC(=O)O)NC(=O)[C@H](CO)NC(=O)[C@@H](NC(=O)[C@H](Cc1ccccc1)NC(=O)[C@@H](NC(=O)CNC(=O)[C@H](CCC(=O)O)NC(=O)C(C)(C)NC(=O)[C@@H](N)Cc1ccc(O)cc1)[C@@H](C)O)[C@@H](C)O)[C@@H](C)CC)C(=O)N[C@@H](CCC(=O)O)C(=O)N[C@@H](Cc1ccc(O)cc1)C(=O)N[C@@H](CC(C)C)C(=O)N[C@@H](CC(C)C)C(=O)N[C@@H](CCC(=O)O)C(=O)NC(C)(C)C(=O)NCC(=O)N1CCC[C@H]1C(=O)N[C@@H](CO)C(=O)N[C@@H](CO)C(=O)NCC(=O)N[C@@H](C)C(=O)N1CCC[C@H]1C(=O)N1CCC[C@H]1C(=O)N1CCC[C@H]1C(=O)N[C@@H](CO)C(N)=O
B2: Example 17 (peptide)
peptide: H[Aib]EGTFTSDYSILLDKIAQK([AEEA-AEEA-γGlu-C20 diacid])AFIEYLLE[Aib]GPSSG-NH2
modifications: N-terminus assumed
SMILES: CC[C@H](C)[C@H](NC(=O)[C@H](CCCCN)NC(=O)[C@H](CC(=O)O)NC(=O)[C@H](CC(C)C)NC(=O)[C@H](CC(C)C)NC(=O)[C@@H](NC(=O)[C@H](CO)NC(=O)[C@H](Cc1ccc(O)cc1)NC(=O)[C@H](CC(=O)O)NC(=O)[C@H](CO)NC(=O)[C@@H](NC(=O)[C@H](Cc1ccccc1)NC(=O)[C@@H](NC(=O)CNC(=O)[C@H](CCC(=O)O)NC(=O)C(C)(C)NC(=O)[C@@H](N)Cc1c[nH]cn1)[C@@H](C)O)[C@@H](C)O)[C@@H](C)CC)C(=O)N[C@@H](C)C(=O)N[C@@H](CCC(N)=O)C(=O)N[C@@H](CCCCNC(=O)COCCOCCNC(=O)COCCOCCNC(=O)CC[C@H](NC(=O)CCCCCCCCCCCCCCCCCCC(=O)O)C(=O)O)C(=O)N[C@@H](C)C(=O)N[C@@H](Cc1ccccc1)C(=O)N[C@H](C(=O)N[C@@H](CCC(=O)O)C(=O)N[C@@H](Cc1ccc(O)cc1)C(=O)N[C@@H](CC(C)C)C(=O)N[C@@H](CC(C)C)C(=O)N[C@@H](CCC(=O)O)C(=O)NC(C)(C)C(=O)NCC(=O)N1CCC[C@H]1C(=O)N[C@@H](CO)C(=O)N[C@@H](CO)C(=O)NCC(N)=O)[C@@H](C)CC
B3: Example 15 (peptide)
peptide: H[Aib]EGTFTSDYSILLDKK([AEEA-AEEA-γGlu-C20 diacid])AQ[Aib]AFIEYLLE[Aib]GPSSGAPPPS-NH2
modifications: N-terminus assumed
SMILES: CC[C@H](C)[C@H](NC(=O)[C@H](Cc1ccccc1)NC(=O)[C@H](C)NC(=O)C(C)(C)NC(=O)[C@H](CCC(N)=O)NC(=O)[C@H](C)NC(=O)[C@H](CCCCNC(=O)COCCOCCNC(=O)COCCOCCNC(=O)CC[C@H](NC(=O)CCCCCCCCCCCCCCCCCCC(=O)O)C(=O)O)NC(=O)[C@H](CCCCN)NC(=O)[C@H](CC(=O)O)NC(=O)[C@H](CC(C)C)NC(=O)[C@H](CC(C)C)NC(=O)[C@@H](NC(=O)[C@H](CO)NC(=O)[C@H](Cc1ccc(O)cc1)NC(=O)[C@H](CC(=O)O)NC(=O)[C@H](CO)NC(=O)[C@@H](NC(=O)[C@H](Cc1ccccc1)NC(=O)[C@@H](NC(=O)CNC(=O)[C@H](CCC(=O)O)NC(=O)C(C)(C)NC(=O)[C@@H](N)Cc1c[nH]cn1)[C@@H](C)O)[C@@H](C)O)[C@@H](C)CC)C(=O)N[C@@H](CCC(=O)O)C(=O)N[C@@H](Cc1ccc(O)cc1)C(=O)N[C@@H](CC(C)C)C(=O)N[C@@H](CC(C)C)C(=O)N[C@@H](CCC(=O)O)C(=O)NC(C)(C)C(=O)NCC(=O)N1CCC[C@H]1C(=O)N[C@@H](CO)C(=O)N[C@@H](CO)C(=O)NCC(=O)N[C@@H](C)C(=O)N1CCC[C@H]1C(=O)N1CCC[C@H]1C(=O)N1CCC[C@H]1C(=O)N[C@@H](CO)C(N)=O
B4: Example 16 (peptide)
peptide: H[Aib]EGTFTSDYSILLDKK([AEEA-AEEA-γGlu-C20 diacid])AQ[Aib]AFIEYLIE[Aib]GPSSGAPPPS-NH2
modifications: N-terminus assumed
SMILES: CC[C@H](C)[C@H](NC(=O)[C@H](Cc1ccccc1)NC(=O)[C@H](C)NC(=O)C(C)(C)NC(=O)[C@H](CCC(N)=O)NC(=O)[C@H](C)NC(=O)[C@H](CCCCNC(=O)COCCOCCNC(=O)COCCOCCNC(=O)CC[C@H](NC(=O)CCCCCCCCCCCCCCCCCCC(=O)O)C(=O)O)NC(=O)[C@H](CCCCN)NC(=O)[C@H](CC(=O)O)NC(=O)[C@H](CC(C)C)NC(=O)[C@H](CC(C)C)NC(=O)[C@@H](NC(=O)[C@H](CO)NC(=O)[C@H](Cc1ccc(O)cc1)NC(=O)[C@H](CC(=O)O)NC(=O)[C@H](CO)NC(=O)[C@@H](NC(=O)[C@H](Cc1ccccc1)NC(=O)[C@@H](NC(=O)CNC(=O)[C@H](CCC(=O)O)NC(=O)C(C)(C)NC(=O)[C@@H](N)Cc1c[nH]cn1)[C@@H](C)O)[C@@H](C)O)[C@@H](C)CC)C(=O)N[C@@H](CCC(=O)O)C(=O)N[C@@H](Cc1ccc(O)cc1)C(=O)N[C@@H](CC(C)C)C(=O)N[C@H](C(=O)N[C@@H](CCC(=O)O)C(=O)NC(C)(C)C(=O)NCC(=O)N1CCC[C@H]1C(=O)N[C@@H](CO)C(=O)N[C@@H](CO)C(=O)NCC(=O)N[C@@H](C)C(=O)N1CCC[C@H]1C(=O)N1CCC[C@H]1C(=O)N1CCC[C@H]1C(=O)N[C@@H](CO)C(N)=O)[C@@H](C)CC

What was measured:
human GIP receptor = target: T1, human GIP receptor; assay: SPA, [125I]-GIP displacement, hGIPR membranes
human GLP-1 receptor = target: T2, human GLP-1 receptor (human, UniProt P43220 24-463); assay: SPA, [125I]-GLP-1 displacement, hGLP-1R membranes
T2 construct: whole, on cells; Used as crude membranes of stably transfected HEK293 cells; also called hGLP1R; hGLP-1R

human glucagon receptor = target: T3, human glucagon receptor (human, UniProt P47871 26-477); assay: SPA, [125I]-Gcg displacement, hGcgR membranes
T3 construct: whole, on cells; Used as crude membranes of stably transfected HEK293 cells; also called hGcgR; hGLcgR
T3 sequence (P47871 26-477): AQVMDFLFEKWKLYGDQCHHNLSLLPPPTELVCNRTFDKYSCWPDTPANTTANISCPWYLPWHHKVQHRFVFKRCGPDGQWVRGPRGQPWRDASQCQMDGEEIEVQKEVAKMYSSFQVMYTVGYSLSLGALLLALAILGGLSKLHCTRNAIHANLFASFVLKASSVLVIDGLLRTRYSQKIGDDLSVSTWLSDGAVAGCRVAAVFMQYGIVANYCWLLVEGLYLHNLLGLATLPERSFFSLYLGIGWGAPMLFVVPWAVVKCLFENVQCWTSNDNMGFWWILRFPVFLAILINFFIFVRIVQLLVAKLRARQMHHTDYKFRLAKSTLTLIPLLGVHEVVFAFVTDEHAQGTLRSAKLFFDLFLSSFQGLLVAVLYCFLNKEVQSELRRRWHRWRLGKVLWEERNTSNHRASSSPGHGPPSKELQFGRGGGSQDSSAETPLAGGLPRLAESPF

Row | Binder | Ki (human GIP receptor) | Ki (human GLP-1 receptor) | Ki (human glucagon receptor)
1 | B1 | 0.624 nM | 23.1 nM | 53.4 nM
2 | B2 | 0.606 nM | 7.63 nM | 261 nM
3 | B3 | 0.284 nM | 2.19 nM | 130 nM
4 | B4 | 0.0841 nM | 2.78 nM | 371 nM
5 | H[Aib]EGTFTSDYSI[αMeL]LDKK([Dab-AEEA-Dab-AEEA-C20 diacid])AQ[αMeK]AFIQYLLA[Aib]GPSSGAPKPS-NH2 [Example 18] | 0.0798 nM | 0.319 nM | 50.1 nM
6 | H[Aib]EGTFTSDYSI[αMeL]LDKK([Dab-AEEA-Dab-AEEA-C20 diacid])AQ[αMeK]AFIQYLLA[Aib]GPSSGAPPPS-NH2 [Example 19] | 0.0518 nM | 0.24 nM | 60.5 nM
